Assays:
[1] = target: proteasome (chymotrypsin-like activity) (Homo sapiens, UniProt P28072+P28074+Q99436); assay: Activity screen of E. coli lysates expressing mutagenized REGγ for stimulation of LLVY-MCA cleavage; format: biochemical; conditions: 170 ng proteasome, 100 μM LLVY-MCA, 10-minute incubation; 1400 colonies
Protocol: Error-prone PCR was used to introduce random mutation into the REGγ DNA. See Zhang et al., (1998)Idnetification of an Activation Region in the Proteasome Activator REGα. Proc. Natl. Acad. Sci. 95:2807-2811. The PCR products were inserted into pET26(b) through NdeI/BamHI sites. The resulting plasmid library was transformed into BL21(DE3) cells. About 60% of the isolated colonies contained a single-site mutation.
Transformants were picked and grown at 37° C. in LB containing 25 μg/ml kanamycin. Protein expression was induced with 0.8 mM IPTG for 2 hours at 30° C. Cells were collected by centrifugation and lysed with 10 mM Tris-HCL, pH 7.5, 0.5% Triton X-100, and 0.3 mg/ml polymixin B sulfate. Aliquots were incubated with 170 ng proteasome and 100 μM LLVY (SEQ ID NO:1)-MCA. After a 10-minute incubation, reactions were terminated with 200 μl of ethanol and fluorescence was measured. See Li et al (2000), The Proteasome Activator 11S REG or PA28: Chimeras Implicate Carboxyl-Terminal Sequences in Oligomerization and Proteasome Binding But Not in the Activation of Specific Proteasome Catalytic Subunits, J. Mol. Biol. 299:641-54.

[2] = target: proteasomes (Homo sapiens, UniProt P28072+P28074+Q99436); assay: Proteasomal degradation of fluorescein-labeled polyQ peptides (molecular exclusion chromatography); format: biochemical; conditions: proteasome + activator, 5 hr incubation
Protocol: The following peptides were synthesized using routine peptide synthesis:
Each peptide was incubated for 5 hr with proteasomes alone, proteasomes+REGγ, proteasome+REGγ(K188E) or proteasomes+REGα/β. Degradation was assayed by molecular exclusion chromatography using fluorescein as a signal (see FIG. 2). The degradation products were identified by HPLC-MS (FIG. 3). […] By contrast, in the presence of REGγ(K188E) the various polyQ peptides were degraded 5 to 10-fold faster.

[3] = Heptamer stability on rechromatography (Superdex 200 size exclusion column); format: physicochemical; conditions: for Percent heptamer: after second gel filtration; for Percentage that remained heptamers on rechromatography: Superdex 200 second gel filtration
Source text: To examine the effect of Lys188 substitution on REGγ heptamer stability, the wildtype and Lys 188 variant heptamers were rechromatographed on the Superdex 200 (26/60) size exclusion column used for purification. […] Replacement of Lys 188 by Pro or Phe severely affected the stability of REGγ heptamer.

[4] = target: T1, proteasome (Homo sapiens, UniProt P28072+P28074+Q99436); assay: REGα(N146Y)/REGβ(N135Y) competition assay for relative proteasome affinity; format: binding; conditions: in terms of REGα(N146Y)/REGβ(N135Y) competition; wild-type REGγ 100
Source text: As a measure of the relative affinities of REGγ and the REGγLys188 mutants for the proteasome, a competition assay was used. See Li et al. (2000), The Proteasome Activator 11S REG or PA28: Chimeras Implicate Carboxyl-Terminal Sequences in Oligomerization and Proteasome Binding But Not in the Activation of Specific Proteasome Catalytic Subunits. J. Mol. Biol. 299:641-54. All REGγLys188 mutants were relatively resistant to REGα(N146Y)/REGβ(N135Y) competition with apparent proteasome affinities varying from 40% to 90% that of wild-type REGγ.

[5] = target: T2, Human red blood cell proteasomes (Homo sapiens, UniProt P28072+P28074+Q99436); assay: Activation of fluorogenic peptide hydrolysis by the proteasome in the presence of REG variants; format: biochemical; conditions: for Stimulation of cleavage (x-fold) LLE: substrate LLE-βNA (PGPH site); for Stimulation of cleavage (x-fold) LLVY: substrate LLVY-MCA (chymotrypsin-like site); for Stimulation of cleavage (x-fold) LRR: substrate LRR-MCA (trypsin-like site); for Stimulation of hydrolysis of LLVY-MCA and LLE-βNA: summary of Table 1
T2 construct: Human red blood cell proteasomes; from tissue; host or cells: human red blood cells
Protocol: Human red blood cell proteasomes (170 ng) were mixed with increasing amounts of purified REG variants. The reactions were started by adding 50 μl of 200 μMscu-LLVY-MCA, Boc-LRR-MCA, or Boc-LLE-βNA in 10 mM Tris, pH 7.5. After a 10 min incubation, the reaction was quenched with 200μl of cold 100% ethanol, and the released MCA or βNA ws measured fluometrically. Each data point represents the mean of three measurements from a single experiment. […] REGα (▪), REGγ(□), REGγ(K188E) or REGγ(K188D) (●), REGγ(K188H) (∘), REGγ(K188Q) or REGγ(K188N) (Δ), REGγ(K188A) (♦). The data for REGγ(K188E) and REGγ(K188D) and for REGγ(K188Q) and REGγ(K188N) were combined since their activities were indistinguishable.
Because each positive variant identified in the previous example included a mutation at Lys188, site-directed mutagenesis was used to generate a series of amino acid substitutions at this residue. Twelve mutants were constructed in which Lys188 of REGγ was changed to Ala, Arg, Asn, Asp, Cys, Gln, Glu, His, Ile, Phe, Pro, or Ser. Wild-type REGγ and the Lys 188 variants were expressed in E. coli, purified, and the activation specificity of each protein was measured using the diagnostic peptides LLVY (SEQ ID NO:1)-MCA, LRR-MCA, and LLE-βNA. Except for the K188R variant, all Lys 188 mutants stimulated the hydrolysis of LRR-MCA by the proteasome to the same extent or slightly better than wild-type REGγ. Substitution of negatively-charged Glu or Asp for the positively-charged Lys188 produced mutants with activation properties almost identical to REGα.
To determine the degree to which the activation specificity of REGγ(K188E/D) variants matches that of REGα, proteasomal cleavage of a series of fluorogenic peptides was measured in the presence of each activator.

[6] = target: T1, proteasome; assay: Proteasomal hydrolysis of natural peptides P21 and BBC1 (HPLC); format: biochemical; conditions: 21-residue peptide P21; result in words
Protocol: Proteasomal hydrolysis of a 21 -residue peptide (P21) and a 49-residue peptide (BBC1) were prepared as described by Zhang et al. (1998), Proteasome Activation by REG Molecules Lacking Homolog-specific Inserts, J. Biol. Chem. 273:9501-09. Digestion products were applied to a C18 HPLC column and separated with a gradient of 0-45% acetonitrile containing 0.1% trifluoroacetic acid. To identify the products derived from P21, fractions were collected manually, concentrated, and subjected to mass spectrometry.

[7] = target: T2, Human red blood cell proteasomes; assay: Activation of fluorogenic peptide hydrolysis by the proteasome in the presence of REG variants; format: biochemical

| Relative affinity for proteasome [4] | Stimulation of cleavage (x-fold) LLE [5] | Stimulation of cleavage (x-fold) LLVY [5] | Stimulation of cleavage (x-fold) LRR [5] | Substance | Percent heptamer [3] | Percentage that remained heptamers on rechromatography [3] | further results |
| --- | --- | --- | --- | --- | --- | --- | --- |
|  |  |  |  | (F102I, K188N): REGγ double mutant F102I, K188N isolated from the error-prone PCR library |  |  | Colony screen for stimulation of LLVY-MCA cleavage [1]: positive |
|  |  |  |  | (L38V, K188N): REGγ double mutant L38V, K188N isolated from the error-prone PCR library |  |  | Colony screen for stimulation of LLVY-MCA cleavage [1]: positive |
|  |  |  |  | (L71P, K188E): REGγ double mutant L71P, K188E isolated from the error-prone PCR library |  |  | Colony screen for stimulation of LLVY-MCA cleavage [1]: positive |
|  |  |  |  | REGα/β: REGα/β hetero-heptamer proteasome activator |  |  | % Degraded, substrate F1-EPQPQ [2]: 55%; % Degraded, substrate F1-KSQPQ [2]: 85%; % Degraded, substrate F1-QHQ [2]: 80%; % Degraded, substrate F1-QPQ [2]: 85%; % Degraded, substrate F1-QQQ [2]: 85% |
| 0 | 9 x-fold | 16 x-fold | 16 x-fold | REGα: 11S REG proteasome activator subunit closely related to REGβ and REGγ | ˜95% |  | Hydrolysis of P21 by the proteasome [6]: markedly increased; Stimulation of cleavage (x-fold) AAF-MCA ([7]; substrate AAF-MCA): 6 x-fold; Stimulation of cleavage (x-fold) DEVD-MCA ([7]; substrate DEVD(SEQ ID NO: 8)-MCA): 10 x-fold; Stimulation of cleavage (x-fold) FSR-MCA ([7]; substrate FSR-MCA): 10 x-fold; Stimulation of cleavage (x-fold) IEGR-MCA ([7]; substrate IEGR(SEQ ID NO: 5)-MCA): 3 x-fold; Stimulation of cleavage (x-fold) IETD-MCA ([7]; substrate IETD(SEQ ID NO: 6)-MCA): 30 x-fold; Stimulation of cleavage (x-fold) LGHD-MCA ([7]; substrate LGHD(SEQ ID NO: 7)-MCA): 11 x-fold; Stimulation of cleavage (x-fold) LY-MCA ([7]; substrate LY-MCA): 5 x-fold; Stimulation of cleavage (x-fold) VLK-MCA ([7]; substrate VLK-MCA): 7 x-fold; Stimulation of cleavage (x-fold) YVAD-MCA ([7]; substrate YVAD(SEQ ID NO: 9)-MCA): 9 x-fold |
| 60 | 6 x-fold | 6 x-fold | 13 x-fold | γK188A: mutant REGγ in which Lys188 was changed to Ala | 60% |  | Stimulation of hydrolysis of LLVY-MCA and LLE-βNA [5]: 6 fold |
| 40 | 4 x-fold | 4 x-fold | 13 x-fold | γK188F: mutant REGγ in which Lys188 was changed to Phe | Dimer | remained monomers or dimers |  |
| 50 | 4 x-fold | 5 x-fold | 14 x-fold | γK188H: mutant REGγ in which Lys188 was changed to His | >95% | remained fully heptameric |  |
| 60 | 3 x-fold | 2 x-fold | 12 x-fold | γK188I: mutant REGγ in which Lys188 was changed to Ile | >95% | remained fully heptameric | Stimulation of hydrolysis of LLVY-MCA and LLE-βNA [5]: 2 fold |
| 75 | 5 x-fold | 5 x-fold | 14 x-fold | γK188N: mutant REGγ in which Lys188 was changed to Asn | 80% |  | Colony screen for stimulation of LLVY-MCA cleavage [1]: positive |
| 40 | 1 x-fold | 1 x-fold | 12 x-fold | γK188P: mutant REGγ in which Lys188 was changed to Pro | 50% |  | Heptamers dissociated during the second gel filtration ([3]; Superdex 200): About 50% |
| 75 | 5 x-fold | 5 x-fold | 14 x-fold | γK188Q: mutant REGγ in which Lys188 was changed to Gln | 80% |  |  |
| 75 | 0.7 x-fold | 0.7 x-fold | 10 x-fold | γK188R: mutant REGγ in which Lys188 was changed to Arg | >95% | remained fully heptameric |  |
| 50 | 3 x-fold | 3 x-fold | 14 x-fold | γKI88S: mutant REGγ in which Lys188 was changed to Ser | >95% | remained fully heptameric |  |
| 60 | 5 x-fold | 6 x-fold | 13 x-fold | γKl88C: mutant REGγ in which Lys188 was changed to Cys | 70% |  | Stimulation of hydrolysis of LLVY-MCA and LLE-βNA [5]: 6 fold |

Source: US20040233833A1, “Methods for identifying compounds with thrapeutic potential for treatment of central Neurodegenerative diseases resulting from abnormal protein or peptide accumulation” (priority 2001, published 2004)
